Laboratory results: publication PMC9279372

Biological target: DEIP1-cYFP fusion protein (Arabidopsis thaliana)
Assay: split reporter (BiFC, NanoBiT); BiFC with vector pBIFCt-2in1-CC in N. benthamiana, Agrobacterium co-infiltration with p19; protoplasts isolated three days after infiltration; YFP and RFP fluorescence by confocal microscopy; 80 protoplasts in two independent experiments for each interaction

Sequence of DEIP1-cYFP fusion protein (Arabidopsis thaliana) (main, as listed by the source): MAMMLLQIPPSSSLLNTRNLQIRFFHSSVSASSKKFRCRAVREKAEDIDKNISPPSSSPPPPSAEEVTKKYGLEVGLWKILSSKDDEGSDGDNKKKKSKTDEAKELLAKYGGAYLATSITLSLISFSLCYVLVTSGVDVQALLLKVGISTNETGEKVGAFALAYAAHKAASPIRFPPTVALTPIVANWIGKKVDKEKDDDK

Row | percent of transfected protoplasts with YFP fluorescence [%] | Substance
1 | 28 | PetB with the pea RBCS chloroplast transit peptide and C-terminal nYFP (from UniProt P56773 1-215)
2 | 30 | PetA with the pea RBCS chloroplast transit peptide and C-terminal nYFP (from UniProt P56771 36-320)
3 | 17 | PetD with the pea RBCS chloroplast transit peptide and C-terminal nYFP (from UniProt P56774 1-160)
4 | 54 | DEIP1-cYFP fusion protein (natural protein)
